In the supplement of paper PMC9170038:

Key:
MS2 coat protein = assay: apparent KD of MS2 coat protein; higher = weaker reporter binding; settings: Eterna round: R107
Experimental: (§1)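 RNA-MaP round R107: designed RNA switches with theophylline, tryptophan, arginine or FMN aptamers are transcribed on-chip within common flanks. They are titrated with SNAP-549-labelled MS2 coat protein in RNA-MaP buffer (100 mM Tris pH 7.5, 80 mM KCl, 4 mM MgCl2), without ligand or with the indicated ligand. Median apparent KD per design.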

[1] = test system: K4 kissing-loop RNA reporter; assay: apparent KD of K4 kissing-loop reporter; higher = weaker reporter binding; settings: Eterna round: R107;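 further: bound reporter read as fluorescence of individual clusters on recovered sequencing chips by microscopy, with normalized cluster intensities fitted with a binding model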
Experimental: as §1, with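 “a labelled K4 kissing-loop RNA reporter” for “SNAP-549-labelled MS2 coat protein”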

[2] = input ligand: theophylline 20 uM
[3] = input ligand: theophylline 2 mM
[4] = input ligand: tryptophan 2.4 mM

| Sequence | apparent KD of MS2 coat protein (MS2 coat protein; input ligand: arginine 13.2 mM) [nM] | apparent KD of MS2 coat protein (MS2 coat protein; input ligand: none) [nM] | apparent KD of MS2 coat protein (MS2 coat protein; [2]) [nM] | apparent KD of MS2 coat protein (MS2 coat protein; [3]) [nM] | apparent KD of MS2 coat protein (MS2 coat protein; [4]) [nM] | apparent KD of K4 kissing-loop reporter ([1]; input ligand: FMN 200 uM) [nM] | apparent KD of K4 kissing-loop reporter ([1]; input ligand: arginine 13.2 mM) [nM] | apparent KD of K4 kissing-loop reporter ([1]; input ligand: none) [nM] | apparent KD of K4 kissing-loop reporter [1, 2] [nM] | apparent KD of K4 kissing-loop reporter [1, 4] [nM] |
| --- | --- | --- | --- | --- | --- | --- | --- | --- | --- | --- |
| GUACAUGAGGAUCACCCAUGUAUAGUUGAAGGAGCGACCAGAGGGUCAGGUAGGUCGCAGCACAUGGUGUAAACCCGUGUAUGCC [#1 Exclusion - Arginine A Attempt #22 (Inspired by Pi)] | 29.6 | 29.3 | 34.6 | 28.9 | 26.8 | – | – | – | – | – |
| AUGCCGGGCCGAAGGAGCGCAAUAGAAUGACAUGAGGAUCACCCAUGUGUGUGAUGUGGGUUGCAGGUAGGUCGCGGCCCGGCAU [#12 Exclusion - Arginine B] | 17.6 | 42.1 | 80.2 | 62.7 | 68.3 | – | – | – | – | – |
| GCUUGGGUGGCACAGCACUGGCAGUGCGAUACCAGCACGGUAACGUGCCCUUGGCAGCGCACAUGAGGAUCACCCAUGUGGUGCG [#1 Exclusion - Theophylline A Attempt #26 (HarryS)] | 18.8 | 24.4 | 66.9 | 275 | 26 | – | – | – | – | – |
| AGCCACUCGAGUGAUCCUCACGAGUGGCUACGAGGACCGGUACGGCCGCCACUCGAAUUAACAUGAGGAUCACCCAUGUAAUCAC [Brourdmod05] | 81.1 | – | 135 | 597 | – | – | – | – | – | – |
| UUUAUUAUUGACUCGUUAUUGUUUUUGGAUCGAGGACCGGUACGGCCGCCACUCGUGAUAUACAUGAGGAUCACCCAUGUUAGCA [JR_Nu_SSTryptoA_Sub020] | 19.3 | – | 22 | 17.2 | – | – | – | – | – | – |
| GAUGAACUAUUUGAUACCAGACUACAUGAGGAUCACCCAUGUGAGUUUAUACUUCUGUCAGUCCCUUGGCAGCAAAUAGUUUAUC [XTheo B #5] | 21.5 | – | 27.8 | – | 16.4 | – | – | – | – | – |
| UGGUUUGUGAUGGAUACCAGCAGAGAAAACGUUUAUCCUAACAUGAGGAUCACCCAUGUAUGCCCUUGGCAGCUGUUGUGGGCUA [8.S] | 27.5 | – | 37.4 | – | 28.8 | – | – | – | – | – |
| AAAAUAUAGACGGCCGCCACUAUAAACAUGAGGAACAUGAGGAUCACCCAUGUAUGAGGAUCACCUAGGACCGGGUCAUAUAAAA [AstrosExyTryB#1] | 28.6 | 43 | 55.4 | 41.7 | 40.2 | – | – | – | – | – |
| AGUUUAGACACGGCCGCCACUCGUGACAGAUUUCGCAGUGGUCAACAUGAGGAUCACCCAUGUCUGAGGACCGGGUGUUGAGUUU [XTryp B #7] | 45.2 | – | 48.7 | 53.4 | – | – | – | – | – | – |
| GACGGCUCGACGGCCGCCACUCCCUCCGACUGAAGGCACAGUGGACAUGAGGAUCACCCAUGUCCGAGGACCGGGUCGAUCCUGG [theeternabot_sameState_MS2_Trp_B_32] | 14.5 | – | 19.3 | 18.3 | – | – | – | – | – | – |
| ACAUGAGGAUCACCCAUGUUCAUGCGGGAAGGAGCGUGCGGAAGCACAGGUAGGUCGCCCUCAAUAUCUAACGUUACGUUCAUGA [#26 Same State - Arginine A] | 13.7 | 14.3 | 18.4 | 14.4 | 15.5 | – | – | – | – | – |
| GUAUCGCUAGGAGGAUAUUUCAAUUUGACUCUUUGAGUUUUUACGGAGUGAUGUUCCGUUUUACGGAAAGAAGGCCUAGUGAUAC [FMN B 15] | – | – | – | – | – | 121 | 138 | 162 | 159 | 161 |
| GGAUCCACCAGUGAUGUUGGAGAAAACUUCAAGGAUAUGACGAAAGUCAGAAGGUGGUAGACUGGGCAAAGUCCGGUCGGAUCCA [FmnA10 U29+G66] | – | – | – | – | – | 543 | 228 | 296 | 402 | 274 |
| GUCUGCGUCUCGGCCGCCACUCACUAGUGAUGUUAGUAAGGAGCGACUAGCGCAGUCCUGAAGAUGAGGACCGGGAGACGCAGGA [Exclusion Tryptophan B GF5] | – | – | – | – | – | 141 | 110 | 119 | 91 | 358 |
| UUAUAUUUUAUAUUUAGUAGAGCUCUAGCUCGAGGACCGGUACGGCCGCCACUCGAGUGAUGUUCGAGUGGAAGAGCUCUACAUU [AK3.1 EXC Tryptophan A] | – | – | – | – | – | 114 | 99.9 | 110 | 98.2 | 435 |
| CUCGUGGGUUUGAGAGGGCUUGUGGGAAGUAAGGAUAUUUAGGGAGGAAGAAGGUACUAUAGAAUAUAGUGAUGUUAUAUAUGGG [SSFMNA.Y] | – | – | – | – | – | 301 | 224 | 289 | 406 | 244 |
| UAAUUUAUGUCUUUAAUAUAAUUUUCAGAUACCAGUGAUUAUUAACACCCUUGGCAGCUGUGUAGAGUGAUGUUCUCAUGCUUAA [#07 K4 Theophylline A Exclusion] | – | – | – | – | – | 307 | 354 | 365 | 373 | 229 |
| CCAUCGCUAUUCGAUACCAGCUACUUAGUGAUGUUAAGUUAAAAUAAAUUGUAGAUUAAAAGCCCUUGGCAGCGAAUAGUGAUGG [Theophylline B K4 19] | – | – | – | – | – | 149 | 134 | 150 | 103 | 136 |
